Each block holds one molecule with its values, some of them ahead of it.
How the values were obtained:
[1] = test system: Dpb11;RPA (Saccharomyces cerevisiae;Saccharomyces cerevisiae); test: single-molecule fluorescence (C-Trap kymographs); settings: 5' dual-biotin at both ends; Imaging: 25 mM Tris-HCl pH 7.5, 100 mM NaCl, 10 mM Mg acetate, 2 mM TCEP, 0.1 mM EDTA, 0.04 mg/mL BSA, 1% glycerol, oxygen scavengers; room temperature, no …
[2] = test system: Dpb11;Mec1;Ddc2;RPA (Saccharomyces cerevisiae;Saccharomyces cerevisiae;Saccharomyces cerevisiae;Saccharomyces cerevisiae); test: single-molecule fluorescence (C-Trap kymographs); settings: 5' dual-biotin at both ends; Imaging: 25 mM Tris-HCl pH 7.5, 100 mM NaCl, 10 mM Mg acetate, 2 mM TCEP, 0.1 mM EDTA, 0.04 mg/mL BSA, 1% glycerol, oxygen scavengers; room temperature, no …; scale: % of Mec1-Ddc2 binding events at gap junctions
[3] = target: T1, Sc Dpb11 recombinant protein (unlabeled) (S. cerevisiae), P47027; test: mass photometry; 150 nM Dpb11, label-free, MP Buffer (25 mM Tris-HCl pH 7.5, 250 mM NaCl, 10 mM Mg(CH3COO)2, 2 mM TCEP, 0.1 mM EDTA, 4% glycerol); monomer and dimer; settings: remark: other sources report otherwise
T1 chain: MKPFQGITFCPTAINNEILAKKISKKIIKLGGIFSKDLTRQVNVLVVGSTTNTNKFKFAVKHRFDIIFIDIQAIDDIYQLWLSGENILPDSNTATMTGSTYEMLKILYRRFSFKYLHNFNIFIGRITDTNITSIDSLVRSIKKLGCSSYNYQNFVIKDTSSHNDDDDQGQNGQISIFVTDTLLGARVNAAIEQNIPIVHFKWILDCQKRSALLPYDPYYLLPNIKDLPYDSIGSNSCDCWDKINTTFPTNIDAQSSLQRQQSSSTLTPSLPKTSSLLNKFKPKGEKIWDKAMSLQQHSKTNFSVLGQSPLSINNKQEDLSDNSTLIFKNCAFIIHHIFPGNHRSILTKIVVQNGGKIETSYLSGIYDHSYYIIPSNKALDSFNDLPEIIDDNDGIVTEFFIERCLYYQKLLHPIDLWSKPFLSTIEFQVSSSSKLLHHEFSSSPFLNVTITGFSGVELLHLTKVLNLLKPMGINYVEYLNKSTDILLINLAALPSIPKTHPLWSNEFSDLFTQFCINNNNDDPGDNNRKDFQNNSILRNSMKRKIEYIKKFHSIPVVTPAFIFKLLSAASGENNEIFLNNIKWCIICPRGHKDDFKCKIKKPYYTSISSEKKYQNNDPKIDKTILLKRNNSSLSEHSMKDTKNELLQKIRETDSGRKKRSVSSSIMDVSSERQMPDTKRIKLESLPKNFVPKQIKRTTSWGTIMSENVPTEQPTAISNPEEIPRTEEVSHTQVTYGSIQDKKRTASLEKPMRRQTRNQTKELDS

[4] = target: T1, Sc Dpb11 recombinant protein …; test: mass photometry; 50 nM Dpb11, label-free, MP Buffer (25 mM Tris-HCl pH 7.5, 250 mM NaCl, 10 mM Mg(CH3COO)2, 2 mM TCEP, 0.1 mM EDTA, 4% glycerol); monomer and dimer; settings: remark: other sources report otherwise
[5] = target: T2, Mec1-Ddc2^LD555 (Mec1(b)-Ddc2 labeled with LD555) (S. cerevisiae, UniProt P38111 1-2368; Q04377 1-747, fluorophore LD555 (NHS ester) at the N-terminal amine of Mec1-Ddc2; which chain is not told | fluorophore LD555 (NHS ester) at the N-terminal amine of Mec1-Ddc2; which chain is not told); test: single-molecule fluorescence imaging, dual-color colocalization (C-Trap); 10 nM Mec1-Ddc2^LD555, 20 nM Dpb11^LD655, 180 nM unlabeled Dpb11 and 100 nM unlabeled RPA on 3 kb-gapped DNA; SM Buffer, room temperature, no flow; settings: both partners purified
T2 construct: Mec1, S. cerevisiae; gene synthesized by Biomatik; Ddc2, S. cerevisiae; gene by PCR from genomic DNA of strain S288C; also called fluorescent Mec1-Ddc2; Sc Mec1(b)-Ddc2 recombinant protein; copies: 2 + 2

[6] = target: T2, Mec1-Ddc2^LD555 (Mec1(b)-Ddc2 labeled …); test: single-molecule fluorescence imaging (C-Trap, optical tweezers with confocal microscopy); 30 nM fluorescent Mec1-Ddc2, 200 nM unlabeled Dpb11 and 100 nM unlabeled RPA on 3 kb-gapped DNA; distribution of initial binding positions of Mec1-Ddc2; SM Buffer, room temperature, no flow; settings: both partners purified
[7] = target: T3, Mec1-Ddc2^AF647 (Mec1(a)-Ddc2 labeled with Alexa Fluor 647) (S. cerevisiae, UniProt P38111 1-2368; Q04377 1-747, fluorophore AF647 (NHS ester) at the N-terminal amine of Mec1-Ddc2; which chain is not told | fluorophore AF647 (NHS ester) at the N-terminal amine of Mec1-Ddc2; which chain is not told); test: as above; settings: both partners purified
T3 construct: Mec1, S. cerevisiae; gene synthesized by Biomatik; Ddc2, S. cerevisiae; gene by PCR from genomic DNA of strain S288C; Only the Mec1(b) plasmid was deposited (Addgene 240737); Mec1(a) differs in the C-terminal tag region; also called Sc Mec1(a)-Ddc2 recombinant protein; copies: 2 + 2

Molecule: 3 kb-gapped 19 kb DNA
binding signal (% of binding events at gap junctions) [1]: 53 | binding signal [2]: 50

percent of particles as dimer [3]: 98% | stoichiometry N [3]: 2 | percent of particles as dimer [4]: 64% | percent of particles as monomer [4]: 35% | stoichiometry N [4]: 2
B1: Sc Dpb11 recombinant protein (unlabeled), P47027 1-764 (natural protein)
chain: T1 chain

binding result [5]: binds
B2: Dpb11^LD655 (natural protein, S. cerevisiae, UniProt P47027 1-764, looked up)
chain: T1 chain
modifications: fluorophore LD655 (NHS ester) at the N-terminal amine
notes: Dpb11, S. cerevisiae strain S288C gene; Same protein as m1, labeled; In the dual-color experiment 20 nM of it stood with 180 nM unlabeled Dpb11; also called fluorescent Dpb11; Dpb11 labeled with LD655; source: S. cerevisiae strain OY001, GAL1/10 overexpression, purified (FLAG-Ab beads), then labeled with LD655 NHS

binding result [6]: binds | binding result [7]: binds
B3: Sc Dpb11 recombinant protein (unlabeled) (natural protein, S. cerevisiae, UniProt P47027 1-764, looked up)
chain: T1 chain
notes: Dpb11, S. cerevisiae strain S288C gene; Eluted from the beads with 3xFLAG peptide; no removal of the tag is described; By mass photometry a mixture of monomer and dimer; also called unlabeled Dpb11

Source: publication PMC13539869, “Dpb11 facilitates the colocalization of Mec1-Ddc2 with its activators on gapped DNA” (Cell reports, 2026)
